In US20230035798A1 (CAPELLA BIOSCIENCE, published 2023):

T1: membrane LIGHT S192A (human, UniProt O43557 1-240)
T1 chain: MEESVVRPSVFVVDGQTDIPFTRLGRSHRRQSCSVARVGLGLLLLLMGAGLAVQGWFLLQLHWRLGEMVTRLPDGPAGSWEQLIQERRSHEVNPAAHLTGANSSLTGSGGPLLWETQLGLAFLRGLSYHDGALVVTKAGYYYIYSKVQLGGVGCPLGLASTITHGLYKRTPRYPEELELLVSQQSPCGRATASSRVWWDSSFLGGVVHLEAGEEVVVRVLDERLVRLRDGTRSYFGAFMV


Assays:
[1] = target: T2, human LIGHT (TNFSF14), full length, membrane-bound (214E allele) (human, UniProt O43557 1-240); assay: competition with biotin-LTβR-Fc, EL4-LIGHT cells, flow cytometry
T2 construct: also called membrane LIGHT; human membrane LIGHT
T2 sequence (O43557 whole entry K214E): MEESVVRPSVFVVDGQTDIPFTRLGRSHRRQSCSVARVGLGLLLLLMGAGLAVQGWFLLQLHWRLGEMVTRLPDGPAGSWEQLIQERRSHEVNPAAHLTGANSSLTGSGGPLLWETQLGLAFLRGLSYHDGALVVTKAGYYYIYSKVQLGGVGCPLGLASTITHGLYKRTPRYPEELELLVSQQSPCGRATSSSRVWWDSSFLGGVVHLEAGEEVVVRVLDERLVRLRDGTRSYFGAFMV
Procedure: (§1) Biotin-LTβR-Fc and biotin-HVEM-Fc were prepared using a kit purchased from ThermoFisher (EZ-Link NHS-LC-Biotin; cat. no. 21336) according to the manufacturer's instructions. […] The diluent used was FACS buffer. The cells were washed 3 times with FACS buffer and biotin-LTβR-Fc and biotin-HVEM-Fc binding detection to cells was performed with streptavidin-APC (1:400; BioLegend cat. No. 405207) for 30 min at 4° C. and fluorescence read in the RL-1 channel. The anti-HEL mAb 2A11 was utilised as a background control.
(§2) The above experiment was repeated utilising LIGHT stably expressed on EL4-cells and the results depicted in Table 11B.

[2] = target: T2, human LIGHT (TNFSF14), full length, …; assay: competition with biotin-HVEM:Fc, HEK293FF LIGHT cells, flow cytometry
Procedure: (§3) The ability of the 7 chimeric mAbs to block biotin-HVEM:Fc and biotin-LTβR:Fc fusion proteins to cell surface expressed LIGHT using a flow cytometric based assay is shown in FIGS. 1A and 1B respectively. In these experiments, graded amounts of each antibody were added to the HEK293FF cells transiently transfected with LIGHT with a 50% saturating amount of the receptor fusion protein. As shown, each of the antibodies blocked either receptor fusion protein from binding LIGHT, in contrast to the irrelevant antibody control which had no effect on either Fc-receptor fusion protein binding. In each experiment, all antibodies blocked receptor binding in a dose dependent manner enabling analysis by non-linear regression to determine the IC50 dose as shown in Table 11A.

[3] = target: T2, human LIGHT (TNFSF14), full length, …; assay: DcR3-His (1 nM) competition, EL4-LIGHT, flow cytometry; 3.7 nM
Procedure: EL4-LIGHT cells (0.25×10⁶) were preincubated with anti-membrane LIGHT mAbs (0-300 nM) for 15 min at 4° C. followed by incubation with DcR3-His tagged (1 nM, Creative BioMart; ref: TNFRSF6B-552H, lot: 962512) for 30 min at 4° C. The samples were then incubated with mouse anti-histag antibody (diluted 1:500, Biolegend, cat. no. 652502) for 30 minutes at 4° C., followed by incubation with anti-mouse APC (dil 1:500, BDBiosciences, cat. no. 550826) for 30 minutes at 4° C. The tubes were washed three times after each of the detection antibody stages and flow cytometry analysis was performed. Specific mean fluorescence intensity (MFI) obtained from the binding of DcR3-His to LIGHT on EL4 cells were used to determine the levels of competition binding.
In humans, LIGHT is neutralized by DcR3, a unique soluble member of the TNFR superfamily, which tightly binds LIGHT (both soluble and membrane forms) and inhibits its interactions with HVEM and LTβR. A major binding determinant for DcR3 neutralization is the region T170-E178 on LIGHT (Liu et al. Structure 2014: 9; 1252-1262). […] In contrast the anti-LIGHT mAb F19, (from EP2292663) which binds both soluble LIGHT and membrane LIGHT equally well completely displaces DcR3 from binding to membrane LIGHT highlighting a surprising an important functional difference between the anti-membrane LIGHT mAbs of this invention and other neutralizing anti-LIGHT mAbs that have been raised against or screened against soluble LIGHT.

[4] = target: T1, membrane LIGHT S192A; assay: flow cytometry, transfected HEK293FF, mAb at EC50
Procedure: The day of transfection the cells were seeded in a 24-well plate at 0.6×10⁶ cells/well. Lipofectamine 2000 (ThermoFisher scientific), 3 μl, was mixed with 50 μl OptiMEM medium (GIBCO) and then added to 50 μl Opti-MEM medium containing 3 ug plasmid DNA and incubated for 20 min at RT to form DNA-Lipofectamine 2000 complexes which were then added to the HEK293FF cells and incubated at 37° C., 5% CO₂ for 24 hours. For each construct, in duplicate, 0.60×10⁶ cells/well were used in a 96 well round bottom plate. Cells were centrifuged for 3 minutes at 300×g at 4° C., the supernatant discarded and the cells washed with 150 μl FACS buffer (0.5% FBS in phosphate buffered saline). This process was repeated 3 times. […] The wells were washed 3 times as above and 50 μl/well of goat anti-human IgG FITC (1:1500 dilution in FACS buffer, SIGMA F9512-2ML) or goat anti-mouse APC (1/500 dilution in FACS buffer, BDBioscience 550826), as appropriate, was added to the wells and incubated for 30 min at 4° C. protected from the light, with shaking. The cells were then washed as above, resuspended in 100 μl of FACS buffer and binding of the antibodies to the constructs was measured using flow cytometry and a total of 10,000 cells were acquired for each sample. Controls of buffer and secondary antibody only as well as HEK293FF non transfected cells were also used.

[5] = target: T2, human LIGHT (TNFSF14), full length, …; assay: competition with biotin-LTβR:Fc, HEK293FF LIGHT cells, flow cytometry
Procedure: as §3

[6] = target: T2, human LIGHT (TNFSF14), full length, …; assay: competition with biotin-HVEM-Fc, EL4-LIGHT cells, flow cytometry
Procedure: as §1, §2

[7] = target: membrane LIGHT without residues 81-84 (EL4-NC-LIGHT cells) (human, UniProt O43557 1-240); assay: cell-based or functional assay
Sequence of membrane LIGHT without residues 81-84 (EL4-NC-LIGHT cells) (O43557 other isoform, or with tags, fused parts or gaps): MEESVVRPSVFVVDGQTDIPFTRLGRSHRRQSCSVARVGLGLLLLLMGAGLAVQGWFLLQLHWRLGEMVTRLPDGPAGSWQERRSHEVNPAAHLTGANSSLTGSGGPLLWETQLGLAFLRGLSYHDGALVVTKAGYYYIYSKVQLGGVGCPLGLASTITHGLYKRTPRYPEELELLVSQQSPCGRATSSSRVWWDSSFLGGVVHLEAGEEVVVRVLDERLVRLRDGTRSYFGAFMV

IC50 [1] | IC50 [2] | DcR3-His binding, % of irrelevant mAb [3] | binding, % of WT [4] | IC50 [5] | IC50 [6] | IC50, inhibition of IL-8 secretion from HT-29 cells (EL4-NC-LIGHT cells) [7] | Binder
38 nM | 36.6 nM | 80.4% | 50% | 12 nM | 24.1 nM | – | 3E09 (antibody, V domains shown, chimeric human IgG4 (S-to-P, L-to-E at 248), human CL; also called Parental 3E09) VH: EVQLVESGGGLVKPGGSLKLSCEASGFTFSDYYMYWVRQTPEKRLEWVAAIGDGGIYTYYADTVKGRFTISRDNAKNILYLQMSSLKSNDTAMYYCARGTGDGFAYWGQGTLVTVS VL: DIVLTQSPASLAVSLGQRATISCRASESVDSYGNSFMHWYQQKPGQPPKLLIYLASNLESGVPARFSGSGSRTDFTLTIDPVEADDAATYYCQQNNEDPYTFGGGTKLEIK
0.35 nM | 2.5 nM | 89.6% | 41% | 1.4 nM | 0.32 nM | 2 nM | 3A07 (antibody, human IgG4, V domains shown, chimeric human IgG4 (S-to-P, L-to-E at 248), human CL; also called Parental 3A07) VH: QVQLQQSGAELVRPGAPVTLSCKASDYTFTDSEIHWVKQTPVHGLEWIGEIDPETGGTAYNQKFKGKATLTADKSSSTAYMELRSLTSEDSAVYYCSRETDYFFDYWGQGTTLTVSS VL: ENVLTQSPAIMSASPGEKVTMTCSASSSVSYMYWYQQRPGSSPRLLIYDTSNLASGVPVRFSGSGSGTSYSLTISRMEAEDAATYYCQQWSSYPLTFGSGTKLEIK
0.86 nM | 2.1 nM | 86.9% | 35% | 1.9 nM | 0.8 nM | 1.9 nM | 3C10 (antibody, human IgG4, V domains shown, chimeric human IgG4 (S-to-P, L-to-E at 248), human CL; also called Parental 3C10) VH: EVQLQQSGAELVRPGASVTLSCKASDYTFTDSEIHWVKQTPVHGLEWIGEIDPETGGTAYNQKFKGKATLTADKSSSTAYMELRSLTSEDSAVYYCSRETDYFFDYWGQGTTLTVSS VL: DVVMTQTPAIMSASPGEKVTMTCSASSSVSYMYWYQQKPGSSPRLLIYDTSNLASGVPVRFSGSGSGTSYSLTISRMEAEDAATYYCQQWSSYPLTFGAGTKLELK
0.19 nM | 1 nM | 68.6% | 84% | 0.6 nM | 0.16 nM | 0.1 nM | 3D12 (antibody, human IgG4, V domains shown, chimeric: mouse variable domains on human IgG4 HC (S-to-P and L-to-E at 248) and human CL; also called Parental 3D12; 3D12 chimeric) VH: QVQLQQPGAELVRPGASVTLSCKASDYTFTDSEIHWVKQTPVHGLEWIGEIDPETGGTAYNQKFKGKATLTADKSSSTAYMELRSLTSEDSAVYYCSRETDYFFDYWGQGTTLTVSS VL: DIQMTQSPASLSASVGETVTITCGASENIYGALNWYQRKQGKSPQLLIYGATNLADGMSSRFSGSGSGRQYSLKISSLHPDDVATYYCQNVLSTPWTFGGGTKLEIKR
5.7 nM | 23.8 nM | 66.1% | 122% | 14.4 nM | 4.3 nM | 1.8 nM | 2E08 (antibody, human IgG4, V domains shown, chimeric human IgG4 (S-to-P, L-to-E at 248), human CL; also called Parental 2E08) VH: QVQMKESGAELVRPGVSVKISCKGSGYTFTDYAIHWVKQSHAKTLEWIGVISTYYGDASYNQKFKGKATMTVDKSSSTAYMELARLTSDDSAIYYCARSRGEYGNYDAMDYWGQGTSVTVSS VL: DIVLTQSPASLAVSLGQRATISCKASQSVDYDGDSYMNWYQQKPGQPPKLLIYAASNLESGIPARFSGSGSGTDFTLNIHPVEEEDAATYYCQQSNEDPLTFGAGTKLELK
0.36 nM | 2.9 nM | 78.6% | 96% | 2.1 nM | 0.34 nM | 0.6 nM | 2B11 (antibody, human IgG4, V domains shown, chimeric human IgG4 (S-to-P, L-to-E at 248), human CL; also called Parental 2B11) VH: EVQLVESGAELVRPGVSVKISCKGSGYTFTDYAIHWVKQSHAKSLEWIGVISTYYGDASYNQKFKGKATMTVDKSSSTAYMELARLTSEDSAIYYCARSRGEYGNYDAMDYWGQGTSVTVSS VL: DIVLTQSPASLAVSLGQRATISCRASESVDSYGNSFMHWYQQKPGQPPKLLIYRASNLESGIPARFSGSGSRTDFTLTINPVEADDVATYYCQQSNEDPYTFGGGTKLEIK

Binder | IC50 [1] | IC50 [2] | DcR3-His binding, % of irrelevant mAb [3] | binding, % of WT [4] | IC50 [5] | IC50 [6] | IC50, inhibition of IL-8 secretion from HT-29 cells (EL4-NC-LIGHT cells) [7]
3B04 (antibody, human IgG4, V domains shown, chimeric: mouse variable domains on human IgG4 HC (S-to-P and L-to-E at 248) and human CL; also called Parental 3B04; 3B04 chimeric) VH: QVQLQQPGAELVRPGASVTLSCKASGYTFTDYEMHWVKQTPVHGLEWIGEIDPETGDTAYSQKFKGKATLTADKSSSTAYMEFRSLTSEDSAVYYCSRETDYFFDYWGQGTTLTVSS VL: DIQMTQTPASLSASVGETVTITCGASENIYGALNWYQRKQGKSPQLLIYGATNLADGMSSRFSGSGSGRQYSLKISSLHPDDFATYYCQNVLTTPWTFGGGTKLEIKR | 0.19 nM | 1.2 nM | 78.5% | 88% | 1.1 nM | 0.13 nM | 0.2 nM
